Measurements taken from PMC4447067.

Tests used:
Details in all cases: GMSA: K-glu100 buffer (40 mM HEPES pH 8.0, 10 mM MgCl2, 100 mM K glutamate, 4 mM DTT, 500 ug/ml BSA), 15 min at 37 C, 1 nM DNA, 18-150 nM RNA polymerase …
[1] = biological target: T1, EsigmaS RNA polymerase holoenzyme (reconstituted) (UniProt P13445+P0A7Z4+P0A8V2+P0A8T7+P0A800); experiment: KMnO4 footprinting
[2] = biological target: T2, Esigma70 RNA polymerase holoenzyme (reconstituted) (UniProt P00579+P0A7Z4+P0A8V2+P0A8T7+P0A800); experiment: KMnO4 footprinting
[3] = biological target: T1, EsigmaS RNA polymerase holoenzyme (reconstituted); experiment: EMSA
[4] = biological target: T2, Esigma70 RNA polymerase holoenzyme (reconstituted); experiment: EMSA

Row | Sequence | binding [1] | binding [2] | binding [3] | binding [4]
1 | TATTCAGTCGCTGAAAAGCCGCTACGGCGAAAGTGAAGAGATCCTGTCGCTGCTTAATCTTTATCATAATCTGCTGCGGGAATGGTCGGAGATCTGATGCTTGAACTGCCCGAGTTCGTCCCTGGATTAGCTACACTTAACTGTACAAGTATTGATATGGGGAGGTCGATATGGCATCCGGTTGGGCTAACGATGACGCCGTCAACGAACAGATCAACAGTACAATT (double strand) [ybiI promoter fragment] | binds | binds more weakly | binds | binds more weakly
2 | GATGGCGATAACTTCACTGGTGCGAAATGCGACCGAAGCAACCGCGCCATTACCGTCAATAGTAATCATATGACACCCTTACATTGCGCAAATGAGGGGCGCACGAAATTGCTGCGCGCCCAGTAGTAATCTTTCAATTTTAGCAAATGGCTTTCTTCTGCATTTTCGCTTTTGTGTCCCCCACATCAGCGTAATGAATGTTTTGATCAAACAGAGGGCAAAAAAATAGCCATAAAAAAGTAAAAATGCG (double strand) [ydbK promoter fragment] | binds | binds | binds | 
